First the molecules themselves.
B1: Hairpin Ribozyme (parent)
chain: GUCCUCUUUCACGUGCGCGUGAAAGAGAGAAGUGAACCAGAGAAACACACGUUGUGGUAUAUUACCUGGUA

Variants of B1 are the subject of the series. As to the kind of experiment: self-cleavage, relative activity (ratio to wild type); higher = more cleavage; co-transcriptional.
In the case of GUCCUCUUUCACGUGCGCGUGAAAGAGAGAAGUGAACCAGAGAAACACACGUUGUGGUACAUUACCUCGUA, the self-cleavage amounted to 0.25.
Turning to GUCCUCUUUCACGUGCGCGUGAAAGAGAGAAGUGAACCAGAGAAACACACGUUGUGGUAUCUUACCUGGAA, the self-cleavage came out at 0.204.
Turning to GUCCUCUUUCACGUGCGCGUGAAAGAGAGAAGUGAACCAGAGAAACACACGUUGUGGUAGAUUACCCGGUA, the self-cleavage was 0.121.
As to GUCCUCUUUCACGUGCGCGUGAAAGAGAGAAGUGAACCAGAGAAACACACGUUGUGGUAGAUUACCUGGAA, the self-cleavage was determined as 0.572.
Then GUCCUCUUUCACGUGCGCGUGAAAGAGAGAAGUGAACCAGAGAAACACACGUUGUGGUAGAUUACCUGGCA, with 0.372; and GUCCUCUUUCACGUGCGCGUGAAAGAGAGAAGUGAACCAGAGAAACACACGUUGUGGUACAUUACCAGGUA, with 0.324; and GUCCUCUUUCACGUGCGCGUGAAAGAGAGAAGUGAACCAGAGAAACACACGUUGUGGUAUCUCACCUGGUA, with 0.284.
Take GUCCUCUUUCACGUGCGCGUGAAAGAGAGAAGUGAACCAGAGAAACACACGUUGUGGUAUCUGACCUGGUA: the self-cleavage turned out to be 0.12.
With GUCCUCUUUCACGUGCGCGUGAAAGAGAGAAGUGAACCAGAGAAACACACGUUGUGGUACAUAACCUGGUA, the self-cleavage came to 0.262.
As for GUCCUCUUUCACGUGCGCGUGAAAGAGAGAAGUGAACCAGAGAAACACACGUUGUGGUUUAUAACCUGGUA, the self-cleavage turned out to be 0.206.
As to GUCCUCUUUCACGUGCGCGUGAAAGAGAGAAGUGAACCAGAGAAACACACGUUGUGGUUUAUGACCUGGUA, the self-cleavage amounted to 0.218.
Regarding GUCCUCUUUCACGUGCGCGUGAAAGAGAGAAGUGAACCAGAGAAACACACGUUGUGGUAGAUUACCUAGUA, the self-cleavage is 0.201.
As for GUCCUCUUUCACGUGCGCGUGAAAGAGAGAAGUGAACCAGAGAAACACACGUUGUGGUAUCUUGCCUGGUA, the self-cleavage amounted to 0.185.
Then GUCCUCUUUCACGUGCGCGUGAAAGAGAGAAGUGAACCAGAGAAACACACGUUGUGGUAUCUUUCCUGGUA, with 0.179; and GUCCUCUUUCACGUGCGCGUGAAAGAGAGAAGUGAACCAGAGAAACACACGUUGUGGUAAAUUACCAGGUA, with 0.198; and GUCCUCUUUCACGUGCGCGUGAAAGAGAGAAGUGAACCAGAGAAACACACGUUGUGGUGUAUUGCCUGGUA, with 0.176.
Take GUCCUCUUUCACGUGCGCGUGAAAGAGAGAAGUGAACCAGAGAAACACACGUUGUGGUGUAUUCCCUGGUA: the self-cleavage stood at 0.273.
As for GUCCUCUUUCACGUGCGCGUGAAAGAGAGAAGUGAACCAGAGAAACACACGUUGUGGUUUAUUCCCUGGUA, the self-cleavage was 0.149.
GUCCUCUUUCACGUGCGCGUGAAAGAGAGAAGUGAACCAGAGAAACACACGUUGUGGUUUAUUGCCUGGUA: the self-cleavage was 0.139.
The figure for GUCCUCUUUCACGUGCGCGUGAAAGAGAGAAGUGAACCAGAGAAACACACGUUGUGGUAAAUUACCUGGCA is 0.626.
As to GUCCUCUUUCACGUGCGCGUGAAAGAGAGAAGUGAACCAGAGAAACACACGUUGUGGUAAAUUACCUGGAA, the self-cleavage amounted to 0.61.
In the case of GUCCUCUUUCACGUGCGCGUGAAAGAGAGAAGUGAACCAGAGAAACACACGUUGUGGUGUAUUACCUGGUU, the self-cleavage stood at 0.106.
Take GUCCUCUUUCACGUGCGCGUGAAAGAGAGAAGUGAACCAGAGAAACACACGUUGUGGUGUAUUACCUGGUG: the self-cleavage was 0.0933.
Then GUCCUCUUUCACGUGCGCGUGAAAGAGAGAAGUGAACCAGAGAAACACACGUUGUGGUAUCUUAUCUGGUA, with 0.148.
As for GUCCUCUUUCACGUGCGCGUGAAAGAGAGAAGUGAACCAGAGAAACACACGUUGUGGUCUAUUACCAGGUA, the self-cleavage stood at 0.241.
The figure for GUCCUCUUUCACGUGCGCGUGAAAGAGAGAAGUGAACCAGAGAAACACACGUUGUGGUCUAUUACCCGGUA is 0.123; for GUCCUCUUUCACGUGCGCGUGAAAGAGAGAAGUGAACCAGAGAAACACACGUUGUGGUAAAUUACCUGAUA it is 0.183.
Take GUCCUCUUUCACGUGCGCGUGAAAGAGAGAAGUGAACCAGAGAAACACACGUUGUGGUAAAUUACCUGCUA: the self-cleavage is 0.336.
As for GUCCUCUUUCACGUGCGCGUGAAAGAGAGAAGUGAACCAGAGAAACACACGUUGUGGUAAAUUACCUGUUA, the self-cleavage was 0.129.
For GUCCUCUUUCACGUGCGCGUGAAAGAGAGAAGUGAACCAGAGAAACACACGUUGUGGUACAUUACGUGGUA, the self-cleavage came to 0.0763.
Then GUCCUCUUUCACGUGCGCGUGAAAGAGAGAAGUGAACCAGAGAAACACACGUUGUGGUGUCUUACCUGGUA, with 0.39.
As to GUCCUCUUUCACGUGCGCGUGAAAGAGAGAAGUGAACCAGAGAAACACACGUUGUGGUGUAUUACGUGGUA, the self-cleavage worked out at 0.228.
For GUCCUCUUUCACGUGCGCGUGAAAGAGAGAAGUGAACCAGAGAAACACACGUUGUGGUGUAGUACCUGGUA, the self-cleavage was 0.167.
Take GUCCUCUUUCACGUGCGCGUGAAAGAGAGAAGUGAACCAGAGAAACACACGUUGUGGUAUCUUACCUCGUA: the self-cleavage turned out to be 0.153.
On to GUCCUCUUUCACGUGCGCGUGAAAGAGAGAAGUGAACCAGAGAAACACACGUUGUGGUAUCUUACCUGGUC, for which the self-cleavage came out at 0.285.
In the case of GUCCUCUUUCACGUGCGCGUGAAAGAGAGAAGUGAACCAGAGAAACACACGUUGUGGUAUCUUACCUGGUU, the self-cleavage was determined as 0.164.
Turning to GUCCUCUUUCACGUGCGCGUGAAAGAGAGAAGUGAACCAGAGAAACACACGUUGUGGUAAAUAACCUGGUA, the self-cleavage worked out at 0.164.
In the case of GUCCUCUUUCACGUGCGCGUGAAAGAGAGAAGUGAACCAGAGAAACACACGUUGUGGUAAAUCACCUGGUA, the self-cleavage amounted to 0.151.
